Test results published in PMC13399123, “Interaction of HS1BP3 with cortactin modulates TKS5 localisation, cell secretion and cancer malignancy” (Molecular Oncology, 2026).

Biological target: T1, full-length MBP-HS1BP3 (UniProt Q53T59 1-392)
T1 construct: HS1BP3, full length; also called HS1BP3 FL; MBP HS1BP3 full-length WT; source: SoluBL21 E. coli, purified (amylose resin, eluted with 10 mM maltose)
T1 sequence (looked up): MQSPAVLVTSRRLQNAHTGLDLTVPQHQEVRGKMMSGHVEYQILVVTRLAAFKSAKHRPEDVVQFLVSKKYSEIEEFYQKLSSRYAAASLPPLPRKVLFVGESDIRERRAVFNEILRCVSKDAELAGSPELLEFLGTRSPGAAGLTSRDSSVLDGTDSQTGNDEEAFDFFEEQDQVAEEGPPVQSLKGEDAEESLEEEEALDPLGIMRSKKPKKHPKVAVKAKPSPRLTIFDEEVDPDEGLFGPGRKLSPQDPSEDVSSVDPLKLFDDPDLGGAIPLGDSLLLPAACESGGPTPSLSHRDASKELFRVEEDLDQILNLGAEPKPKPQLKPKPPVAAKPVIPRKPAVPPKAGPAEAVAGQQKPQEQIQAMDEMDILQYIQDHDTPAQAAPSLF
Test: pull-down; equal concentrations of GST-SH3 (on glutathione beads) and purified MBP-tagged HS1BP3 proteins incubated 2 h at 4 °C, six washes with GST-buffer, anti-MBP immunoblot
Settings: both partners purified

binding result: binds
B1: GST-SH3 (SH3 domain of cortactin fused to GST) (domain or fragment)
chain: not shown
notes: SH3 domain of cortactin (CTTN); Q14247 amino acids 492-550 are printed only for the SH3 fragment used in the AlphaFold model; Held on glutathione beads as bait; also called GST-SH3 (cortactin); source: SoluBL21 E. coli, purified on Glutathione Sepharose 4B beads
